Results reported in PMC9082959, “Mechanism of Assembly of the Non-Covalent Spectrin Tetramerization Domain from Intrinsically Disordered Partners” (Journal of molecular biology, 2013).

Key:
Conditions in all cases: both partners purified
[1] = target: T1, β16β17 (erythrocyte β-spectrin residues 1898–2083), wild type (human, UniProt P11277 1898-2083); assay: stopped-flow intrinsic tryptophan fluorescence (dissociation/unfolding kinetics); wild type; observed rate constants for tetramer dissociation calculated from folding and unfolding experiments in urea; k− in water with mk− 1.44 M^-1; PBS, 25 °C
T1 construct: erythrocyte β-spectrin, human, residues 1898-2083 (β16 plus the incomplete 17th domain); synthetic gene (GenScript) in a modified pRSETA plasmid; source: E. coli C41(DE3), purified (Ni2+ agarose, thrombin cleavage, gel filtration)
T1 sequence (looked up): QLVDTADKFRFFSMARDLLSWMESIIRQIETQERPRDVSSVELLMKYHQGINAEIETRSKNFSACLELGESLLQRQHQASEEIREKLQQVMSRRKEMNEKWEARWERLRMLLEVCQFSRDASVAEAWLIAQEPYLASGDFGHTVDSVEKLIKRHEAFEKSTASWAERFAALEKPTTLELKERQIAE

[2] = target: T1, β16β17 (erythrocyte β-spectrin residues …); assay: ITC; β16β17 at 25–50 μM in the cell titrated with 15–20 injections to 2–2.5 eq of α0α1; one-site binding model; PBS (50 mM sodium phosphate, 150 mM NaCl, pH 7.04), 25 °C; mutants only against the wild-type partner
β16β17 V41A = target: T2, β16β17 V41A (human, UniProt P11277 1898-2083, V2044A); assay: as above
T2 construct: erythrocyte β-spectrin, human, residues 1898-2083 (β16β17); mutant of m2; also called V2044A; source: E. coli C41(DE3), purified (Ni2+ agarose, thrombin cleavage, gel filtration)
T2 sequence (looked up): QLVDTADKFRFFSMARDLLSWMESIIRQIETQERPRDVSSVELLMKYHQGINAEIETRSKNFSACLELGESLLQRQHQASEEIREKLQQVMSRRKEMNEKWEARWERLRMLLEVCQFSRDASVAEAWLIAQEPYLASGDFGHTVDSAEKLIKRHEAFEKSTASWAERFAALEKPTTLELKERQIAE

β16β17 A15G = target: T3, β16β17 A15G (human, UniProt P11277 1898-2083, A2018G); assay: as above
T3 construct: erythrocyte β-spectrin, human, residues 1898-2083 (β16β17); mutant of m2; also called A2018G; source: E. coli C41(DE3), purified (Ni2+ agarose, thrombin cleavage, gel filtration)
T3 sequence (looked up): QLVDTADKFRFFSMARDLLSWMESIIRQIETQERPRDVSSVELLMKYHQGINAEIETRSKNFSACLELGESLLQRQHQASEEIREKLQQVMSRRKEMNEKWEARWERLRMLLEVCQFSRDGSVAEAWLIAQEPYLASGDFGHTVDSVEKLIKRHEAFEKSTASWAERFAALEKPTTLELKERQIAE

β16β17 F51L = β16β17 F51L (human, UniProt P11277 1898-2083, F51L (domain identifier), printed F2054G as protein identifier, The table's protein identifier F2054G is taken as a typo: the domain identifier is F51L (offset 2003), and the text says aromatic residues were mutated to Ala or Leu); assay: as above
β16β17 F62L = target: T4, β16β17 F62L (human, UniProt P11277 1898-2083, F2065L); assay: as above
T4 construct: erythrocyte β-spectrin, human, residues 1898-2083 (β16β17); mutant of m2; also called F2065L; source: E. coli C41(DE3), purified (Ni2+ agarose, thrombin cleavage, gel filtration)
T4 sequence (looked up): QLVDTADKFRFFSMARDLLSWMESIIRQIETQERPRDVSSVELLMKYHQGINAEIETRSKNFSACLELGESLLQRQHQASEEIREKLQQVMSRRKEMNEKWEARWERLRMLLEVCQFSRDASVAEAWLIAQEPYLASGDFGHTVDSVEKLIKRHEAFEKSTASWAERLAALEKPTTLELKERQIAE

β16β17 L22A = target: T5, β16β17 L22A (human, UniProt P11277 1898-2083, L2025A); assay: as above
T5 construct: erythrocyte β-spectrin, human, residues 1898-2083 (β16β17); mutant of m2; also called L2025A; source: E. coli C41(DE3), purified (Ni2+ agarose, thrombin cleavage, gel filtration)
T5 sequence (looked up): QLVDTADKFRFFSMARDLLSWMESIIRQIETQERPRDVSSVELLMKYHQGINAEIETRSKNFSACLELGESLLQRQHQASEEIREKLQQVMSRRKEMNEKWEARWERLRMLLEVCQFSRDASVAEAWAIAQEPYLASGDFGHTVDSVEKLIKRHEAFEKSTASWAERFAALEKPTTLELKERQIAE

[3] = target: T1, β16β17 (erythrocyte β-spectrin residues …); assay: as above; remark: listed apart in the source

B1: α0α1 (erythrocyte α-spectrin residues 2–163), wild type (domain or fragment, human, UniProt P02549 2-163, looked up)
chain: EQFPKETVVESSGPKVLETAEEIQERRQEVLTRYQSFKERVAERGQKLEDSYHLQVFKRDADDLGKWIMEKVNILTDKSYEDPTNIQGKYQKHQSLEAEVQTKSRLMSELEKTREERFTMGHSAHEETKAHIEELRHLWDLLLELTLEKGDQLLRALKFQQY
notes: synthetic gene (GenScript) in a modified pRSETA plasmid; also called α1α0; source: E. coli C41(DE3), purified (Ni2+ agarose, thrombin cleavage, gel filtration)
koff [1]: 0.00025 s⁻¹ | Kd [2]: 400 nM | Ka (β16β17 V41A): 420000 M⁻¹ | Ka (β16β17 A15G): 6000 M⁻¹ | Ka (β16β17 F51L): 180000 M⁻¹ | Ka (β16β17 F62L): 100000 M⁻¹ | Ka (β16β17 L22A): 6000 M⁻¹ | Ka [3]: 2.07e+06 M⁻¹
